# T1: KGF (rat) (Rattus norvegicus, UniProt Q02195 Q02195:32-194)
# T1 sequence: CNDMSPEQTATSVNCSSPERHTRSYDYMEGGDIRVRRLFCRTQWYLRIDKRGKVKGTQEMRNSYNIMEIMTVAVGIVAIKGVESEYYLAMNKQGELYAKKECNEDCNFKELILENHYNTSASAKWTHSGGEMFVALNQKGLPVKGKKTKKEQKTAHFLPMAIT
# T2: KGF (hKGF) (Homo sapiens, UniProt P21781 P21781:32-194)
# T2 sequence: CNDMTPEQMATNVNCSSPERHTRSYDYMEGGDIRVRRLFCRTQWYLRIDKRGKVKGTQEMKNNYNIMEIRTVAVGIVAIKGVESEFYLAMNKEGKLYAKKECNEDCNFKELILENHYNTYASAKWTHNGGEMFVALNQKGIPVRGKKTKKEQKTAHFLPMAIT
# Columns and labels:
# [1] = biological target: T3, TGFβ1 (Homo sapiens, UniProt P01137 P01137:279-390); assay: cell_activity; second value 201 nM; details: tags: Genentech or R&D Systems; chain copies: 2;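 also: inhibition of TGFβ1-induced luciferase reporter expression in mink lung epithelial cells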
# T3 sequence (P01137 279-390, one chain of several): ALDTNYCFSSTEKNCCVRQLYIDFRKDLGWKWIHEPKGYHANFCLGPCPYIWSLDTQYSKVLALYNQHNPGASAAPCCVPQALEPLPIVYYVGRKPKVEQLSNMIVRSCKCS
# Experimental: (§1) Mink lung epithelial cells (MLEC) carrying the Pail/luc construct were maintained in DME containing 10% fetal bovine serum and 400 μg/ml G418. MLEC-Pail/luc cells were plated at 3.2×10⁴ cells per well in a 96 well Falcon plate, in 100 μl of DME+10% fetal bovine serum overnight. Media was made from autoclaved water. The cells were washed three times ([…]) in serum free DME plus Solution A (1:1). Solution A is 30 mM Hepes pH 7.6, 10 mM glucose, 3.0 mM KCl, 131 mM NaCl, 1.0 mM disodium phosphate. Samples (100 μl) were added in DME containing 20 mM Hepes pH 7.5, and 0.1% BSA (Fluka, radioimmunoassay grade). All samples were in triplicate. After six hours at 37° C. in a 5% CO₂ incubator the media was removed and cells were washed three times (100 μl each) in cold PBS. Lysis buffer (75 μl) (Analytical Luminescence Laboratory) was added and the plates incubated on ice for 20 min. The plates were sealed and frozen at −80° C. until assayed. Samples (25 μl) were assayed for luciferase activity with the Enhanced Luciferase Assay Kit from Analytical Luminescence Laboratory (San Diego, Calif., USA) according to the manufacturer's instructions using the Berthold Microlumat LB96P luminometer.
# (§2) Ligands tested for inhibition of TGFβ1 activity were tested at a minimum of five concentrations. […]
# [2] = biological target: T1, KGF (rat); assay: cell_activity; Balb/MK DNA synthesis; details: tags: QED Advanced Research Technologies; pseudoknot
# Experimental: (§3) Balb/MK cells grown in Low Ca⁺⁺ EMEM with 10% FCS (dialyzed and heat inactivated) and 5 ng/ml rhEGF were trypsinized and resuspended in Low Ca⁺⁺ EMEM with 1% FCS (dialyzed and heat inactivated) and 0.5 ng/ml rhEGF and plated on 96 well fibronectin coated culture plates at 4-6×10⁴ cells per well in 100 μl total volume. Following overnight growth, the medium was replaced with Low Ca⁺⁺ EMEM without FCS or rhEGF and serum starved for about 30 hrs. […] Following over-night incubation, ³H-thymidine was added at 0.2 μCi/well and incubation continued for an additional 7-8 hrs. The extent of ³H-thymidine incorporation was determined by TCA precipitation and filtration through GFC filter disks.
# [3] = biological target: bFGF (Homo sapiens, UniProt P09038 P09038:143-288); assay: filter; specificity control; random RNA 0.0375 and 10.3 nM; details: tags: R&D Systems; label: 32P; pseudoknot (predicted)
# Sequence of bFGF (P09038 143-288, one chain of several): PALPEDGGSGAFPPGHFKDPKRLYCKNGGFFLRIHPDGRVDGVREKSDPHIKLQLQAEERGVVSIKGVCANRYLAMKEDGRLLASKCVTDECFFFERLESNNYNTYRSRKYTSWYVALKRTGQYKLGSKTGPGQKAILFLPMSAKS
# [4] = biological target: T2, KGF (hKGF); assay: cell_activity; Balb/MK mitogenic assay; details: tags: Upstate Biotechnology; pseudoknot
# Experimental: as §3
# [5] = biological target: EGF (Homo sapiens, UniProt P01133 P01133:971-1023); assay: filter; specificity control; random RNA 2000 nM; details: tags: Upstate Biotechnology; label: 32P; pseudoknot (predicted)
# Sequence of EGF (P01133 971-1023, one chain of several): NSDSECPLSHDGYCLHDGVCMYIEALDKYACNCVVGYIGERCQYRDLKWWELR
# [6] = biological target: T1, KGF (rat); assay: filter; high affinity component; Kd2 70.0 nM; details: tags: QED Advanced Research Technologies; label: 32P; pseudoknot (predicted)
# [7] = biological target: T3, TGFβ1; assay: filter; specificity control; random RNA 10.4 nM; details: tags: Genentech; biotinylated version used in bead assay; chain copies: 2; label: 32P; pseudoknot (predicted)
# [8] = biological target: PDGF-AB (Homo sapiens, UniProt P04085;P01127 P04085:87-211,P01127:82-190); assay: filter; specificity control; random RNA 22.0 nM; details: tags: R&D Systems, E. coli; label: 32P; pseudoknot (predicted)
# Sequence of PDGF-AB (P01127 82-190, chain 2 of 2, other chains not shown): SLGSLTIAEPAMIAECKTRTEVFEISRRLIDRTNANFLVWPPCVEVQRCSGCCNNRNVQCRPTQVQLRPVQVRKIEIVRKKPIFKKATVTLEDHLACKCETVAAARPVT
# [9] = biological target: T3, TGFβ1; assay: cell_activity; PAI-luciferase MLEC, n=4; details: tags: Genentech or R&D Systems; chain copies: 2;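 also: inhibition of TGFβ1-induced luciferase reporter expression in mink lung epithelial cells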
# Experimental: as §1, §2
# [10] = biological target: T3, TGFβ1; assay: filter; boundary experiment; details: tags: Genentech or R&D Systems; chain copies: 2
# [11] = biological target: T3, TGFβ1; assay: filter; second determination 0.2 nM; cell IC50 69-109 nM; details: tags: Genentech; biotinylated version used in bead assay; chain copies: 2
# [12] = biological target: T3, TGFβ1; assay: cell_activity; also 108 and 69 nM; stimulates at low concentration; details: tags: Genentech or R&D Systems; chain copies: 2;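 also: inhibition of TGFβ1-induced luciferase reporter expression in mink lung epithelial cells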
# Experimental: as §1, §2
# [13] = biological target: PDGF-BB (Homo sapiens, UniProt P01127 P01127:82-190); assay: competition; PDGF alpha-receptor PAE cells, 4 C; mitogenic half-maximal 2.5 nM; details: tags: R&D Systems, E. coli; chain copies: B chain dimer; three-way helix junction
# Sequence of PDGF-BB (P01127 82-190, one chain of several): as the sequence (P01127 82-190, chain 2 of 2, other chains not shown) above
# [14] = biological target: T3, TGFβ1; assay: cell_activity; second value 112 nM; details: tags: Genentech or R&D Systems; chain copies: 2;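 also: inhibition of TGFβ1-induced luciferase reporter expression in mink lung epithelial cells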
# Experimental: as §1, §2
# [15] = biological target: T3, TGFβ1; assay: filter; 37 C; cell IC50 20 and 157 nM; details: tags: Genentech; biotinylated version used in bead assay; chain copies: 2
# [16] = biological target: T3, TGFβ1; assay: cell_activity; second value 157 nM; details: tags: Genentech or R&D Systems; chain copies: 2
# Experimental: as §1, §2
binder,measurement,setting,value
"lib2-6-1-81 (ssRNA, 2'-NH2-U, 2'-F-C) RNA: GGGGGAGAACGCGGAUCCUGUCUCCACCGCCGAUACUGGGGUUCCUGGGGCCCCUCCAUGCAGGAGGGGGGUGGUUCGGAG",IC50,[1],298 nM
"GGGAGGACGAUGCGGUGGUCUCCCAAUUCUAAACUUUCUCCAUCGUAUC (ssRNA, 2'-F pyrimidines) [14F3'T]",Ki,[2],1.8 nM
same,Kd,[3],10 nM
same,Ki,[4],0.034 nM
same,Kd,[5],256 nM
same,Kd,[6],0.0041 nM
same,Kd,[7],98 nM
same,Kd,[8],50 nM
"lib3-13 (ssRNA, 2'-NH2 pyrimidines) RNA: GGGGGAGAACGCGGAUCCGAGCAAUCCCAGGCGCAUAGCUUCCGAGUAGACAGGAGGGAGGGGUGGAUGUGGCGUCUACUCGGUGUCGUGAAGCUUCGCUCUAGAUCUCCCUUUAGUGAGGGUUA",IC50,[9],25 nM
CUUCCGAGUAGACAGGAGGGAGGGGUGGAUGUGGCGUCUACUC (ssRNA) [lib8-9 boundaries],binding result,[10],binds
"lib4-12 (ssRNA, 2'-NH2 pyrimidines) RNA: GGGGGAGAACGCGGAUCCUGAGAAGGACGUCGGGGUCAACGGGGUGAGGUGCAGCAGAAAGGGCCGGCACCACAUGACGUAAAAGCUUCGCUCUAGAUCUCCCUUUAGUGAGGGUUA",Kd,[11],0.4 nM
same,IC50,[12],109 nM
"CACAGGCTACGGCACGTAGAGCATCACCATGATCCTGTGT (ssDNA, 3'-3' idT) [36t]",IC50,[13],~1 nM
"lib2-6-1 (ssRNA, 2'-NH2-U, 2'-F-C) RNA: GGGGGAGAACGCGGAUCCUGUCUCCACCGCCGAUACUGGGGUUCCUGGGGCCCCUCCAUGCAGGAGGGGGGUGGUUCGGAGAAAGCUUCGCUCUAGAUCUCCCUUUAGUGAGGGUUA",IC50,[14],103 nM
"lib4-32 (ssRNA, 2'-NH2 pyrimidines) RNA: GGGGGAGAACGCGGAUCCGGCAACCCCAGGCGCAUAGCUUCCGAGUAGACAGGCGGGAGGGGUGGAUGUGGCGUCACGAGGAAGCUUCGCUCUAGAUCUCCCUUUAGUGAGGGUUA",Kd,[15],0.8 nM
same,IC50,[16],20 nM
